From PMC9876794 (2022) come the findings set out here.

As a reminder, the Kd is the concentration at which binding is half-saturated.

Substitutions are numbered along the chain they refer to. Some results are limits rather than exact numbers.

The chains are these.
B1: D165 (antibody, V domains shown)
VH: QVQLVQSGAEVKKPGASVKVSCKASGYTFSNYVINWVRQAPGQRPEWMGWINADNGHTVYSQKLQGRVTITTDTSASEAYMELSGLRSEDTAVYYCARGREDYYNNEPYGMDVWGQGTTVTVSS
VL: DIQMTQSPSSLSASVGDRVTITCRASQTISNYLNWYQQKPGQAPKLLIFAASSLQTGVPSRFSGSGSGTTFTLTISSLQPEDFATYYCQQSYGSLYTFGQGTKLDIK
B2: C2738 (antibody, V domains shown)
VH: QVQLQESGPGLVKPSETLSLTCTVSGGSISSYYWSWIRQPAGKGLEWIGRIYTSGSTNYNPSLKSRVTMSVDTSKNQFSLKLSSVTAADTAVYYCARDLWGGSRPFNWFDPWGQGTLVTVSS
VL: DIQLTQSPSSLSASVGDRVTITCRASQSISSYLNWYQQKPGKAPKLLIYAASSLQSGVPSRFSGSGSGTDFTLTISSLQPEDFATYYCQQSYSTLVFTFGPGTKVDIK
B3: D102 (antibody, V domains shown)
VH: QVQLVESGGGVVQPGGSLRLSCAASGFTFSSYGMHWVRQAPGKGLEWVAFIRYDGSNKYYADSVKGRFTISRDNSKNTLYLQMNSLRAEDTAVYYCAKTLGYYYDSSGYYLDYWGQGTLVTVSS
VL: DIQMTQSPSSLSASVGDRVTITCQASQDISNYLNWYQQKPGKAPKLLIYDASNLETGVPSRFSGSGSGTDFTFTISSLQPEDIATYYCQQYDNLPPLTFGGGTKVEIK
B4: D069 (antibody, V domains shown)
VH: QVQLVESGGGVVQPGGSLRLSCAASGFTFNIYGMHWVRQAPGKGLEWVAFIRYDGSNKYYADSVKGRFTISRDNSKNTLYLQMNSLRAEDTAVYYCAKSVGYYASGSYYFDYWGQGTLVTVSS
VL: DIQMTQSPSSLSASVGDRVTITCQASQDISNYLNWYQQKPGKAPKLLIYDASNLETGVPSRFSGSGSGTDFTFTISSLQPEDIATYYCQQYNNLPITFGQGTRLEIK
B5: C2731 (antibody, V domains shown)
VH: QVQLQQWGAGLLKPSETLSRTCAVYGGSFSGYYWSWIRQSPGKGLEWIGEINHRGSTNYNPSLKSRVTISVDTSKNQLSLELRSVTAADTAVYYCARSPGWTTVTRPFDYWGQGALVTVSS
VL: EIVLTQSPGTLSLSPGERATLSCRASQSVSSNYLAWYQQKPGQAPRLLVYGASNRATGIPDRFSGSGSGTDFTLTISRLEPEDFAVFYCQQYSSSPVTFGQGTRLEIK
B6: C2722 (antibody, V domains shown)
VH: EVQLVESGGGLVQPGGSLRLSCAASGFTFSSYSMNWVRQAPGKGLEWVSYISSSSSTIYYADSVKGRFTISRDNAKNSLYLQMNSLRAEDTAVYYCARDDGGGAYYDFWSGYYGDYWGQGTLVTVSS
VL: EIVLTQSPATLSLSPGERATLSCRASQSVSSYLAWYQQKPGQAPRLLIYDASNRATGIPARFSGSGSGTDFTLTISSLEPEDFAVYYCQQRSNWPPFTFGPGTKVDIK
B7: C2715 (antibody)
chain 1: not shown
chain 2: DIQLTQSPSSVSASVGDRVTITCRASQGISSWLAWYQQKPGKAPKLLIYAASSLQSGVPSRFSGSGSGTDFTLTISSLQPEDFATYYCQQANSFPRTFGQGTKVEIK
B8: C2695 (antibody, V domains shown)
VH: EVQLVESGGGLAQPGRSLRLSCAASGFKFDDYAMHWVRQAPGQGLEWVSGIDWNSGIIGYADSVMGRFTISRDNAKKSLYLQMNSLRAEDTALYYCAKSGGFGEFKWFDPWGQGTLVTVSS
VL: EIVMTQSPVTLSVSPGERATLSCRASQSVSGNLAWYQQKPGQAPRLLIYGASTRATGFPARFSGSGSGTEFTLTISRLQSEDFAVYYCQQYNKWPRTFGQGTKLEIK
B9: C2698 (antibody, V domains shown)
VH: B8 VH with A40V, A88T
VL: B8 VL with V9A, G31S
B10: D044 (antibody, V domains shown)
VH: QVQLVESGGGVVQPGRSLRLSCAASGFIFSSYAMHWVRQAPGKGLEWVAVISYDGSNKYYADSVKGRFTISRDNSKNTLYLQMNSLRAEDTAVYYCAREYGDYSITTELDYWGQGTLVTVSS
VL: QSVLTQPPSVSGAPGQRVTISCTGSSSNIGAGYDVHWYQQLPGTAPKLLIYGNSNRPSGVPDRFSGSKSGTSASLAITGLQAEDEADYYCQSYDSSLSGYVFGTGTKVTVL
B11: C2726 (antibody, V domains shown)
VH: EVQLVQSGAEVKKPGESLKISCKGSGYSFTSYWIGWVRQMPGKGLEWMGIIYPGDSDTRYSPSFQGQVTISADKSISTAYLQWSSLKASDTAMYYCARRTAARTNGVCLDYWGQGTLVTVSS
VL: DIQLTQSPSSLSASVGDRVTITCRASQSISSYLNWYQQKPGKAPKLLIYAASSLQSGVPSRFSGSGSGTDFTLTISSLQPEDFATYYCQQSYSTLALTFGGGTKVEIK
B12: D108 (antibody, V domains shown)
VH: QVQLVQSGAEVKKPGASVKVSCKASGYTFTSSDINWVRQATGQGLEWVGWMNPNSGNTGYAQKFQGRVTMTRNTSISTAYMELSSLRSEDTAVYYCASGPYWSGYYYYFDNWGQGTLVTVSS
VL: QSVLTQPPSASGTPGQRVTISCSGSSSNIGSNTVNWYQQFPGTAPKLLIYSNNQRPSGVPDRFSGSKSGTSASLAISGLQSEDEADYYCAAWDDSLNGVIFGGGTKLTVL
B13: D148 (antibody, V domains shown)
VH: QLQLQESGPGLVKPSETLSLTCTVSGGSISSSSYYWGWIRQPPGKGLEWIGSIYYSGSTYYNPSLKSRVTISVDTSKNQFSLKLSSVTAADTAVYYCARQTIYYDSSGSLEVEPMDVWGQGTTVTVSS
VL: not shown
B14: C2697 (antibody, V domains shown)
VH: EVQLVESGGGLVQPGGSLRLSCAASGFTFSSSYSMNWVRQAPGKGLEWVSYISSSSSTIYYADSVKGRFTISRDNAKNSLYLQMNSLRDEDTAVYYCARHYGDKTYYFYGMDVWGQGTTVTVSS
VL: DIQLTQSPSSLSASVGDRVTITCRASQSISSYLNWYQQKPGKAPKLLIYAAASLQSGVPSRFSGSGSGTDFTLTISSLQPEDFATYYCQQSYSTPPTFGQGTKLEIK
B15: D173 (antibody, V domains shown)
VH: EVQLVQSGAEVKKPGESLRISCKGSGYSFTSYWISWVRQMPGKGLEWMGRIDPSDSYTNYSPSFQGHVTISADKSISTAYLQWSSLKASDTAMYYCASQGLVPAAIEIWDYWGQGTLVTVSS
VL: EIVLTQSPATLSLSPGERATLSCRASQSVSSYLAWYQQKPGQAPRLLIYDASNRATGIPARFSGSGSGTDFTLTISSLEPEDFAVYYCQQHSNWPLTFGGGTKVEIK
B16: D040 (antibody, V domains shown)
VH: QVQLVESGGGVVQPGRSLRLSCAASGFTFSSYGMHWVRQAPGKGLEWVTAISYDGSNKYYADSVRGRFTISRDNSKRTLYLQMNSLRAEDTAVYYCAKGVGPYCSGGSCYSPYFDYWGQGTLVTVSS
VL: DIQMTQSPSSLSASIGDRVTITCQANQDISNYLNWYQQKPRKAPKLLIYDASDLETGVPSRFSGSGSGTDFTFTISSLQPEDIATYYCQQSDNLPLTFGGGTKVEIK
B17: D103 (antibody, V domains shown)
VH: QVQLVESGGGVVQPGRSLRLSCAASGFTFSSYGMHWVRQAPGKGLEWVAVISYDGSNKYYADSVKGRFTISRDNSKNTLYLQMNSLRAEDTAVYYCAKGGYYDSSAYYGPLDYWGQGTLVTVSS
VL: SYVLTQPPSVSVAPGKTARITCGGNNIGSKSVHWYQQKPGQAPVLVVYDDSDRPSGIPERFSGSNSGNTATLTISRVEAGDEADYYCQVWDSSSDHWVFGGGTKLTVL
B18: D100 (antibody, V domains shown)
VH: QVQLVQSGAEVKKPGASVKVSCKASGYTFTSYGISWVRQAPGQGLEWMGWISAYNGNTNYAQKLQGRVTMTTDTSTSTAYMELRSLRSDDTAVYYCARVPDRRETPYYDFWSGYSIFDYWGQGTLVTVSS
VL: DIQMTQSPSSLSASVGDRVTITCRASQGISNYLAWFQQKPGKAPKSLIYAASSLQSGVPSKFSGSGSGTDFTLTISSLQPEDFATYYCQQYNSYPLTFGGGTKVEIK
B19: C2710 (antibody, V domains shown)
VH: EVQLVESGGGLVQPGGSLRLSCAASGFTFSSYWMSWVRQAPGKGLEWVANINQDGSEIHYVDSVKGRFTISRDNAKNSLYLQMNSLRAEDTAVYYCAREGGPYDFWSGSNWFDPWGQGTLVTVSS
VL: QSALTQPASVSGSPGQSITISCTGTSSDVGGYNFVSWYQQRPGKAPKLMIYEVHNRPSGVSNHFSGSKSGNTASLTISGLQAEDEADYYCSSYTSNSLYVFGTGTKVTVL
B20: D058 (antibody, V domains shown)
VH: QVQLQESGPGLVKPSETLSLTCTVSGYSISSGYYWGWIRQPPGKGLEWIGSIYHSGSTYYNPSLKSRVTISVDTSKNQFSLKLSSVTAADTAVYYCARDFPLTLYGVLISDAFDIWGQGTMVTVSS
VL: SYELTQPPSVSVSPGQTARITCSADALPKQYAYWYQQKPGQAPVLVIYKDSERPSGIPERFSGSSSGTTVTLTISGVQAEDEADYYCQSADSSGKVFGGGTKLTVL
B21: D038 (antibody, V domains shown)
VH: EVQLVQSGAEVKKPGESLKISCKGSGYSFTSYWIAWVRQMPGKGLEWMGIIYPGDSDTRYSPSFQGQVTISADKSISTAYLQWSSLKASDTAMYYCARQGYSYGYVDYWGQGTLVTVSS
VL: NFMLTQPHSVSESPGKTVTISCTRSSGSIASNYVQWYQQRPGSAPTTVIYEDNQRPSGVPDRFSGSIDSSSNSASLTISGLKTEDEADYYCQSYDSSNWVFGGGTKLTVL
B22: D005 (antibody, V domains shown)
VH: QVQLVQSGAEVKKPGASVKVSCKASGYTFTNYYIHWVRQAPGQGLEWMGIINPSAGSTTYAQKFQGRVTMTSDTSTSTVYMELSSLRSEDTAVYYCARAGELIPAARASFQHWGQGTLVTVSS
VL: DIQMTQSPSTLSASVGDRVTITCRASQSISTWLAWYQQKPGKAPKILIYKASSLESGVPSRFSGSGSGTEFTLTLSSLQPDDFATYYCQQYNSYSPTFGQGTKVEIK

In one test the target is T1, SARS-CoV-2 spike RBD (WT) (Severe acute respiratory syndrome …, UniProt P0DTC2). The test can be described thus: BLI.
In turn, B1 had a Kd of 117 nM.
Molecule B2 came in with a dissociation constant (Kd) of 10.2 nM.
Same read-out and setting: the result for B3 reads 49.1 nM; that for B4, 140 nM; that for B5, 143 nM.
B6 had an equilibrium dissociation constant (Kd) of 43.3 nM.
B7 returned a Kd of 63.4 nM.
On the same count and under the same terms, the result for B8 reads 133 nM.
B9 came in with a dissociation constant Kd of 152 nM.
In turn, B10 registered a Kd of 56.9 nM.
For the molecule B11, the Kd came to 133 nM.
B12: the equilibrium dissociation constant (Kd) came to 6840 nM.
In turn, B13 returned a Kd of 6.46 nM.
For the molecule B14, the Kd came out at 101 nM.
B15: the Kd was 60.3 nM.
On the same count and under the same terms, as for B16, the figure is 32 nM.
Turning to B17, binding was put at a Kd of 2700 nM.
B18 came in with an equilibrium dissociation constant (Kd) of 530 nM.
For B19, the Kd came out at 11.9 nM.
As for B20, binding was put at a Kd of 24.1 nM.
With B21, the affinity, expressed as Kd, was 306 nM.
The same measure, in the same setting: as for B22, the figure is 49.8 nM.

The target in a further test is T1, SARS-CoV-2 spike RBD (WT). The test can be described thus: ELISA. The arrangement: unit not given here. A general note: An ELISA detects its analyte on a solid surface through an enzyme-linked reagent.
B1 returned a binding score of 1370.
In turn, B2 yielded a binding score of 21.1.
The molecule B3 gave a binding score of 22.3.
B4 registered a binding score of 252.
The same measure, in the same setting: as for B5, the figure is 4400; as for B6, 177.
The molecule B7 returned a binding score of 189.
On the same count and under the same terms, the result for B8 reads 45.1.
The molecule B9 showed a binding score of 79.2.
For B10, the binding score came out at 266.
Turning to B11, the binding score turned out to be 3440.
On to B12, for which the binding score turned out to be 6120.
Same read-out and setting: the result for B13 reads 29; that for B14, 2060; that for B15, 181.
Regarding B16, the binding score was 7.71.
In turn, B17 displayed a binding score of more than 10000.
As to B18, the binding score was more than 10000.
On the same count and under the same terms, the result for B19 reads 9.12.
The molecule B20 returned a binding score of 84.8.
For B21, the binding score was more than 10000.
For B22, the binding score was 96.
